Data on 13 molecules can be found in paper PMC3672139, “Aptamer Selection Based on G4-Forming Promoter Region”.

One data set deals with T1, RB1, human (Homo sapiens (Human), UniProt P06400).
T1 sequence: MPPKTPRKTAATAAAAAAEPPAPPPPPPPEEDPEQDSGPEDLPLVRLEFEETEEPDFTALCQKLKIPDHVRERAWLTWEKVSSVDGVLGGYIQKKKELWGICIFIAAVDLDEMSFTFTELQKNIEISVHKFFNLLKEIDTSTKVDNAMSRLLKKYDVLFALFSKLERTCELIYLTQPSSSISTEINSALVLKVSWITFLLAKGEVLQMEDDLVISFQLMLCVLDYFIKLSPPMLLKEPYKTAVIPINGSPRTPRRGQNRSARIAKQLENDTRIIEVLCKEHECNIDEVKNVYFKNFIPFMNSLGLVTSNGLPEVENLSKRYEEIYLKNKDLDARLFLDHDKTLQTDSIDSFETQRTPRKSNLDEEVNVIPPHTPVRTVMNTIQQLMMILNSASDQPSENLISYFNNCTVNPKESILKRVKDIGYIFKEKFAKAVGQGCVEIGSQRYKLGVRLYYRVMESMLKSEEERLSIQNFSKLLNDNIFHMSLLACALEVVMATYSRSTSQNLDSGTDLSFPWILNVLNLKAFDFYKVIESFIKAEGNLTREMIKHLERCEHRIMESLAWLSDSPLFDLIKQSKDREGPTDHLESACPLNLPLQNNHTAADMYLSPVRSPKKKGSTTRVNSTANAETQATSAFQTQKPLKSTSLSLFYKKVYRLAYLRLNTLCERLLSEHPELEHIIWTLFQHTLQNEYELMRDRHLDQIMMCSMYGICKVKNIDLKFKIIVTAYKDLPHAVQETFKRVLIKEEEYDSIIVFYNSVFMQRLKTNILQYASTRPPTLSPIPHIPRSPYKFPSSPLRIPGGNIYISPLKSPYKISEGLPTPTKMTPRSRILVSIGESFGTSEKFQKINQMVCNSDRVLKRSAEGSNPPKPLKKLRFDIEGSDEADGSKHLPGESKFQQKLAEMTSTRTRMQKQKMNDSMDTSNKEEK
The experiment in a line: SPR; 10 mM Tris-HCl pH 7.4, 650 mM NaCl, 5 mM KCl, 25 C; DNA on SA chip, Scatchard. The following applies: label: 5'-biotin. Background: Surface plasmon resonance follows binding to a sensor surface in real time, without labels.

The target of data set [1] is c-KIT intracellular domain (human, UniProt P10721 544-976). The experiment in a line: EMSA; 10 mM Tris-HCl, 150 mM NaCl, 5 mM KCl, pH 7.4; EMSA room temperature 30 min, 12% PAGE in TBE; SPR 25 C (RB1 SPR with 650 mM NaCl). The following applies: protein: recombinant; label: 5'-FITC; G4. For orientation: A gel shift assay detects complexes by their altered migration in electrophoresis.
Chain of c-KIT intracellular domain (P10721 544-976): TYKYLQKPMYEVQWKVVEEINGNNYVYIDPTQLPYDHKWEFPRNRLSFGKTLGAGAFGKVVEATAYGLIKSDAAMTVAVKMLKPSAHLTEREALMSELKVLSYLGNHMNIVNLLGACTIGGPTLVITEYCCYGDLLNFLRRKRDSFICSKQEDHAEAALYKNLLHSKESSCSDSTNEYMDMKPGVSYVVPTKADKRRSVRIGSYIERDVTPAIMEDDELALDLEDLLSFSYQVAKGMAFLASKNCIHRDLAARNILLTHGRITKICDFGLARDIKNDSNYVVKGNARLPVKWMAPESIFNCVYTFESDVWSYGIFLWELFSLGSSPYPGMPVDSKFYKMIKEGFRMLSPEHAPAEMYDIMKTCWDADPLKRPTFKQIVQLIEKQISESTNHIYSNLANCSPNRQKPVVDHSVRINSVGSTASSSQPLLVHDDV

In a further data set the target is VEGF165 (human, UniProt P15692-4 27-191). Put plainly: SPR; 10 mM Tris-HCl, 150 mM NaCl, 5 mM KCl, pH 7.4; EMSA room temperature 30 min, 12% PAGE in TBE; SPR 25 C (RB1 SPR with 650 mM NaCl). The settings on record: protein: recombinant, chain copies: 2.
Chain of VEGF165 (P15692 other isoform, or with tags, fused parts or gaps): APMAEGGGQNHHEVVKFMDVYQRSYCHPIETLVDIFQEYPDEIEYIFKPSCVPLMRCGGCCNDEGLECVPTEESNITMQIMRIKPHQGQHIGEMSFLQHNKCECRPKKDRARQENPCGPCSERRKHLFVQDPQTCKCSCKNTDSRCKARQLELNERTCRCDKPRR
The next data set has as its target PDGF-AA (human, UniProt P04085 87-211). The data set is described as above. The following applies: protein: recombinant, chain copies: 2.
The next data set deals with VEGF165, human (Homo sapiens (Human), UniProt P15692 27-191). The experiment in a line: SPR; 10 mM Tris-HCl pH 7.4, 150 mM NaCl, 5 mM KCl, 25 C; protein amine-coupled on CM5. The settings on record: chain copies: 2.
Another data set addresses PDGF-AA, human (Homo sapiens (Human), UniProt P04085 87-211). The description is as above. The settings on record: chain copies: 2.
A further data set addresses VEGF121 (human, UniProt P15692-9 27-147). Put plainly: EMSA; 10 mM Tris-HCl, 150 mM NaCl, 5 mM KCl, pH 7.4; EMSA room temperature 30 min, 12% PAGE in TBE; SPR 25 C (RB1 SPR with 650 mM NaCl). The settings on record: protein: recombinant, chain copies: 2.
The target of the next data set is VEGF121, human (Homo sapiens (Human), UniProt P15692 27-147). Put plainly: EMSA; 2.6 uM VEGF121. The settings on record: chain copies: 2.
Chain of VEGF121, human (P15692 other isoform, or with tags, fused parts or gaps): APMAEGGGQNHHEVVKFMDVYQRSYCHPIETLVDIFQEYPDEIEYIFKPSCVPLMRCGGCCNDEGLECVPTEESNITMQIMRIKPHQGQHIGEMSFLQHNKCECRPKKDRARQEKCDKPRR
The mark [2] stands for this setting: label: 5'-TAMRA (gel shift), 5'-biotin (SPR to RB1), antiparallel G4.
[3] abbreviates: label: 5'-FITC (gel shift), none (SPR), parallel G4.
Where [4] appears, read: label: none (SPR), not expected to form G4.
The mark [5] stands for this setting: label: 5'-TAMRA (gel shift), parallel G4, monomeric and multimeric bands.

CGTTTTGTTTTGGGCGGC (ssDNA) [RB1 G4 mutant]: in the data set with RB1, human, the binding result is on record as “no binding”. For the molecule AGGGAGGGCGCTGGGAGGAGGG (structured_DNA) [c-KIT G4-2], the binding result in data set [1] is “no binding”. For the molecule GGTTGGTGTGGTTGG (structured_DNA) [TBA (15-mer thrombin-binding aptamer)], the binding result is reported as “no binding” in the data set with VEGF165 (label: none, G4) and “no binding” with PDGF-AA (label: none, G4). As to GGTTGGTGTGGTTGG (structured_DNA, G-quadruplex) [TBA], the binding result with VEGF165, human is reported as “no binding”; with PDGF-AA, human, “no binding”. As usually defined, the Kd is the constant that tells how readily two partners part at equilibrium. As to CGGGGGGTTTTGGGCGGC (structured_DNA), the dissociation constant (Kd) in the data set with VEGF165 (setting [2]) amounted to 300 nM. Moreover, the binding result with PDGF-AA (setting [2]) and with VEGF121 (setting [2]) was “no binding” each time. For the molecule GGGGCGGGCCGGGGGCGGGGTCCCGGCGGGGCGG (structured_DNA), the Kd with VEGF165 (setting [3]) turned out to be 170 nM. In addition, the binding result with PDGF-AA (setting [3]) and with VEGF121 (setting [3]) was “no binding” each time.

GGGGCGGGCCGGGGGCGGGGTCCCGGCGGGGCGG (structured_DNA, G-quadruplex (promoter-derived)): the binding result is “no binding” with VEGF121, human (label: FITC) and “no binding” in the data set with PDGF-AA, human. As to CGGGGGGTTTTGGGCGGC (structured_DNA, G-quadruplex (promoter-derived)), the binding result with VEGF121, human (label: TAMRA) is “no binding”; in the data set with PDGF-AA, human, “no binding”. Also, the dissociation constant (Kd) in the data set with VEGF165, human stood at 300 nM. For GTTTCTTTCCGGTTTCGTTTTCCCGGCGGGGCGG (ssDNA) [VEGFA G4 Mut.], the binding result with VEGF165 (setting [4]) is on record as “no binding”.

Take CGGGCGGGCGCGAGGGAGGGG (structured_DNA) [c-KIT G4-1]: the binding result in data set [1] was “no binding”. For GGAGGCGGGGGGGGGGGGGCGGGGGCGGGGGCGGGGGAGGGGCGCGGC (structured_DNA), the Kd with VEGF165 (setting [5]) amounted to 10 nM. The binding result with VEGF121 (setting [5]) is “no binding”.

GGAGGCGGGGGGGGGGGGGCGGGGGCGGGGGCGGGGGAGGGGCGCGGC (structured_DNA, G-quadruplex (promoter-derived)): the binding result with VEGF121, human (label: TAMRA) was “no binding”. Moreover, the affinity with VEGF165, human, expressed as Kd, was 10 nM.

For the molecule GGAGGCTTTTTTTTTTTTTCTTTTTCTTTTTCTTTTTATTTTCGCGGC (ssDNA) [PDGFA G4 Mut.], the binding result in the data set with PDGF-AA (setting [4]) was “no binding”.
